From publication PMC4935880, “COG lobe B sub-complex engages v-SNARE GS15 and functions via regulated interaction with lobe A sub-complex” (Scientific Reports, 2016) come the findings set out here.

Assay [1] deals with GFP-hGS15 (human) (UniProt Q9NYM9). The assay can be described thus: co-IP; HEK293T cells with lobe B-myc and a GFP-tagged partner fractionated into P15, P100 and S100; membrane pellets solubilised with Triton X-100 and incubated with GBP-beads; blotted with anti-Myc and anti-GFP.
Assay [2] has the same target. The assay can be described thus: co-IP; GFP IP on GBP (GFP binding protein) beads from lysates of transfected HEK293T cells (50 mM Tris pH 7.4, 150 mM NaCl, 1% Triton X-100), 2 h at room temperature; blotted for COG8, Myc and GFP.
For assay [3], the target named is T1, lobe B complex isolated from HEK cells (GFP-hCOG5 + hCOG6/8-3Myc + hCOG7-3Myc) (human, UniProt Q9UP83 1-860; Q9Y2V7 1-657; P83436 1-770; Q96MW5 1-612).
T1 construct: Human COG5 in pEGFP-C1; Human COG6-3Myc in MultiLabel vector; Human COG7 in pCMV-3Myc; Human COG8-3Myc in MultiLabel vector; Elution from TALON by imidazole probably releases His6-GBP together with the GFP-tagged complex; also called lobe B sub-complex; purified lobe B; source: HEK293T, transfected; isolated by Sephacryl S-300 HR gel filtration and TALON-GBP beads, eluted with 350 mM imidazole, …
Nature of the assay: pull-down; GST-tagged GS15 proteins held on Glutathione Sepharose 4B; whole COG complex or lobe B isolated from HEK cells added in 25 mM HEPES-KOH pH 7.4, 25 mM KCl, 2.5 mM magnesium acetate, 1 mM DTT, 0.05% Tween-20, 1 hour at room temperature; Myc blot. To be noted: both partners purified.

Assay [4] concerns the target T2, whole COG complex isolated from HEK cells (GFP-mCOG3 + hCOG1/2/4-3Myc + hCOG6/8-3Myc + hCOG5/7-3Myc) (human | mouse, UniProt Q8WTW3 1-980; Q14746 1-738; Q8CI04 1-820; Q9H9E3 1-785; Q9UP83 1-860; Q9Y2V7 …).
T2 construct: Human COG1-3Myc in MultiLabel vector; Human COG2Streptag-3Myc in MultiLabel vector; Mouse COG3 in pEGFP-C1; Human COG4-3Myc in MultiLabel vector; Human COG5-3Myc in MultiLabel vector; Human COG6-3Myc in MultiLabel vector; Human COG7-3Myc in MultiLabel vector; Human COG8-3Myc in MultiLabel vector; Elution from TALON by imidazole probably releases His6-GBP together with the GFP-tagged complex; also …
The description is as above. To be noted: both partners purified.

T1 sequence (Q9UP83 whole entry, chain 1 of 4): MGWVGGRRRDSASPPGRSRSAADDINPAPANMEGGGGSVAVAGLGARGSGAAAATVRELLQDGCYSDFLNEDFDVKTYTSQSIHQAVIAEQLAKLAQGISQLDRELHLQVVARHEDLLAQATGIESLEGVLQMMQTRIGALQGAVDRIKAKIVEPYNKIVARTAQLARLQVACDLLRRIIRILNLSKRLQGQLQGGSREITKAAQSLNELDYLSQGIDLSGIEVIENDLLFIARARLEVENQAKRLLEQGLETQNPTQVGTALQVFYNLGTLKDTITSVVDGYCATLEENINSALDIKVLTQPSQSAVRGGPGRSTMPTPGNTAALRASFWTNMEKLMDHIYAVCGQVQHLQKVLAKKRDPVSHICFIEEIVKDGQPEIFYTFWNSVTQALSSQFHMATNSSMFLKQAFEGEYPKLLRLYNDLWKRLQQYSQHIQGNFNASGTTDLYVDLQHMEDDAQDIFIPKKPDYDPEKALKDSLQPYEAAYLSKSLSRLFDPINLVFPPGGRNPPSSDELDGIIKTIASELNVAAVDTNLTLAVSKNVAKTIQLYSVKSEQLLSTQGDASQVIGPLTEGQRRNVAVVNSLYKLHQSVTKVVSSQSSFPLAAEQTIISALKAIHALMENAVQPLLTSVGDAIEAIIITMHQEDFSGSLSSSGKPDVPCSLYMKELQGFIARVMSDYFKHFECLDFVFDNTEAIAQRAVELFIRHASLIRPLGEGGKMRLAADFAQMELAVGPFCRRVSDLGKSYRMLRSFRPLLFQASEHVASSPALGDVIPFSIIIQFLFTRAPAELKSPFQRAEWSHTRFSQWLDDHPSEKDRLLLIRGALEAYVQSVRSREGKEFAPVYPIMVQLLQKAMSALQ
T1 sequence (Q9Y2V7 whole entry, chain 2 of 4): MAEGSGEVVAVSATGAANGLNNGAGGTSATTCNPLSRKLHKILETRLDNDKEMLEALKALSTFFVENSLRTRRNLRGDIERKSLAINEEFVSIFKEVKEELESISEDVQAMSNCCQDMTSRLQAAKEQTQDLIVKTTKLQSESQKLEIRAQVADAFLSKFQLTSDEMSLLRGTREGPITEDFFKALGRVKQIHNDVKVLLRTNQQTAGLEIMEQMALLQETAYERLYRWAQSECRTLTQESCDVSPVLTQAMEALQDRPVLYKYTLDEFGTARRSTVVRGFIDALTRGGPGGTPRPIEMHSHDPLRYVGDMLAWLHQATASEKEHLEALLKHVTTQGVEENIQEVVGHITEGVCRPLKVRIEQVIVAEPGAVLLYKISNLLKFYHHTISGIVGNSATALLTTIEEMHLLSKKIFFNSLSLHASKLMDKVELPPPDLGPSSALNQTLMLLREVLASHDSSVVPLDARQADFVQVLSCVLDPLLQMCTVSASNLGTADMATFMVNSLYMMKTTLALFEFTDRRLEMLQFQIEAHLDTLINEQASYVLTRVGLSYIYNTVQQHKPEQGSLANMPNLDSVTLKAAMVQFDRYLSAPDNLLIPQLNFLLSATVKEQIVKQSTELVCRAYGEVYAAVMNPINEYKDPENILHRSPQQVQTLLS
T1 sequence (P83436 whole entry, chain 3 of 4): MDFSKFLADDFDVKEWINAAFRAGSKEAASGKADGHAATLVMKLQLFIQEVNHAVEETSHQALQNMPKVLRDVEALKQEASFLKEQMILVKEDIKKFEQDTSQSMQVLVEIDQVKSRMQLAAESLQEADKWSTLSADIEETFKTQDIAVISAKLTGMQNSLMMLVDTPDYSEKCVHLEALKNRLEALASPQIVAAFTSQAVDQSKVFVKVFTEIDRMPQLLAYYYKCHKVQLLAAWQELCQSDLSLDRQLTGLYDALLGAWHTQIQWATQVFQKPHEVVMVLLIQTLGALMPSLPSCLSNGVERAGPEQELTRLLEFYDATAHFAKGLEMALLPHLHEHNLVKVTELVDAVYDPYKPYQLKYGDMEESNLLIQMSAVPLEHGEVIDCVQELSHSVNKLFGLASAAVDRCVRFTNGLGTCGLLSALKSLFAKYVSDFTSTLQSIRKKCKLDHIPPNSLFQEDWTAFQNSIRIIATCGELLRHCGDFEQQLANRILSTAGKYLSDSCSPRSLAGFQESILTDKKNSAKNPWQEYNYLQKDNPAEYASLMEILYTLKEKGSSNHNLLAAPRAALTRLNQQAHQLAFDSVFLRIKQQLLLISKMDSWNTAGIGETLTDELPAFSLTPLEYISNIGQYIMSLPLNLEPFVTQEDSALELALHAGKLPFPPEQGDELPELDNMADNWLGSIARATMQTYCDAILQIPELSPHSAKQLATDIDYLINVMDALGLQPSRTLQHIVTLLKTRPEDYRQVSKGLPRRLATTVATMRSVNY
T1 sequence (Q96MW5 whole entry, chain 4 of 4): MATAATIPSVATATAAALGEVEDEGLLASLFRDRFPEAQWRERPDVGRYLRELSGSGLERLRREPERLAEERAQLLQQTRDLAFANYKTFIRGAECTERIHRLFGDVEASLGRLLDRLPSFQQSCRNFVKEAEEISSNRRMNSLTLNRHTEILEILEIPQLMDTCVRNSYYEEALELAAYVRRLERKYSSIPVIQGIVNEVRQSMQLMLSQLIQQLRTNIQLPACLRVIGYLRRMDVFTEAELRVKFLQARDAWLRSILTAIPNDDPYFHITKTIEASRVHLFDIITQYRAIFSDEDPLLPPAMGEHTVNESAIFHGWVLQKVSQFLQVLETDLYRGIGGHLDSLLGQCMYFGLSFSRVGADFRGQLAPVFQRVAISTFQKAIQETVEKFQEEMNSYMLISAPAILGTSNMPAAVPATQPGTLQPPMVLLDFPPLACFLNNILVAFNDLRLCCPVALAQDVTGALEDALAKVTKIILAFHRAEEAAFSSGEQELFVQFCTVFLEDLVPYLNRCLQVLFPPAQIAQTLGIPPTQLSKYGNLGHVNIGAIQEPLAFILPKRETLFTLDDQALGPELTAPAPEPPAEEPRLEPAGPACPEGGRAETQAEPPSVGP

In turn, “lobe B sub-complex, myc-tagged (hCOG5-3Myc, hCOG6-3Myc, hCOG7-3Myc, hCOG8-3Myc), Q9UP83 1-860; Q9Y2V7 1-657; P83436 1-770; Q96MW5 1-612” gave a percent pull-down in assay [1] below 12%.
Molecule “COG1-HA-GS-COG8 hybrid (hCOG1-HA-GS-TEV-hCOG8-3Myc)” returned a co-IP efficiency (percent of input) in assay [2] of 0.3%.

B1: His-hGS15-GST, full-length (FL) GS15 cytoplasmic domain (aa 1–86) (domain or fragment, human, UniProt Q9NYM9 1-86, looked up)
chain: MADWARAQSPGAVEEILDRENKRMADSLASKVTRLKSLALDIDRDAEDQNRYLDGMDSDFTSMTSLLTGSVKRFSTMARSGQDNRK
notes: Human GS15 cytoplasmic domain (aa 1–86) in pET28a; also called GST-tagged full-length (FL) GS15 cytoplasmic domain; not shown: GST, C-terminal, kept
Take B1: the binding result in assay [3] and in assay [4] was “binds” in each case.
